B1: 22 bp I-Vdi141I target site duplex (dsDNA)
DNA 1: CTGACTCTCTTAAGGTAGCCAA
DNA 2: TTGGCTACCTTAAGAGAGTCAG

What was measured:
[1] = biological target: I-Vdi141I … homing endonuclease, wild type (Vulcanisaeta distributa strain IC-141); test: SEC
[2] = biological target: T1, I-Vdi141I I65M/I107M (selenomethionyl) (V. distributa strain IC-141, UniProt Q6L703 1-169, I65M;I107M); test: X-ray crystallography
T1 sequence: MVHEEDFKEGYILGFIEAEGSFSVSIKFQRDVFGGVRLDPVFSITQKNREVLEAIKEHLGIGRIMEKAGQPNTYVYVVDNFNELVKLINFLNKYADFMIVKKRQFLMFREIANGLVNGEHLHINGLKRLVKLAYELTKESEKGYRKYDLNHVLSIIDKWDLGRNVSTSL

Row | Molecule | stoichiometry N [1] | binding result [2]
1 | I-Vdi141I … homing endonuclease, wild type (enzyme) | 2 | 
2 | B1 |  | binds

Reference: PMC2602781
